This data set is described as follows: turbidity assay; turbidity at 600 nm against protein concentration; 20 mM Tris-HCl, 150 mM NaCl pH 8.0, 20% (w/v) PEG2k; 96-well plate, quadruplicate; self-assembly into condensates. Conditions: other: turbidity assay.

“PduP encapsulation peptide with its native linker fused to the N-terminus of mNeonGreen”: the “inflection of turbidity against protein concentration” value was 33.1 µM ± 0.4 µM.
“Three serial repeats of the PduP EP and its native linker fused to the N-terminus of mNeonGreen” came in with an inflection of turbidity against protein concentration of 19.7 µM.
The value for “Two serial repeats of the PduP EP and its native linker fused to the N-terminus of mNeonGreen” was 15.5 µM.

The record behind these values is paper PMC12339742.
